In patent US20090011988A1 (Genentech, published 2009):
Positions of bridges follow the written chain, without caps; N, C: chain ends. No end group written: not given here.

Key:
human IGFBP-1 [1] = biological target: T1, human IGFBP-1 (human, UniProt P08833 26-259); assay: BIAcore inhibition assay
T1 sequence (looked up): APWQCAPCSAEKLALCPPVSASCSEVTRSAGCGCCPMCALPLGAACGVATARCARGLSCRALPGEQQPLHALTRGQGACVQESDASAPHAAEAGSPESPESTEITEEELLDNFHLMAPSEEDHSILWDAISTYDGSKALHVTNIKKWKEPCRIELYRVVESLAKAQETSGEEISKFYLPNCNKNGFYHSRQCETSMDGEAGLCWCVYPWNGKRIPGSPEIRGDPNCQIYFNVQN

human IGFBP-1 [2] = biological target: T1, human IGFBP-1; assay: BIAcore inhibition assay; remark: listed apart in the source
Protocol: Peptides were assayed in a BIAcore™ assay as described in WO 98/45427, supra.

Question: Does Ac-LEWLAEKYEG (linker 2-9 via 1,5‑diaminopentane) [(i+7)B] bind (human IGFBP-1 [1])?
Answer: no binding (tested: >360-fold weaker than BP1-01)

Question: And the “fold potency reduction, IC50 (BP1-01)/IC50 (mut)” value (human IGFBP-1 [2])?
Answer: > 360
